Laboratory results: the nanobody polyreactivity screen of Harvey et al. (2022)

Assay: yeast display, Sf9 membrane polyspecificity reagent, FACS + sequencing; frameworks hold sequencing errors
Outline: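 In a synthetic yeast display library (Saccharomyces cerevisiae BJ5465), nanobody expression was induced with galactose for 36–48 hours. FACS gates were set low and high (top ~1%) using anti-HA fluorescence for expression and streptavidin fluorescence for binding of the Sf9 membrane reagent. Each polyreactivity label is drawn from the gate of origin.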

| Sequence | polyreactivity (PSR sort gate) |
| --- | --- |
| QVQLVESGGGLVQAGGSLRLSCAASGRIFTTYAMGWYRQAPGKERELVAAITSGGGTYYADSVKGRFTISRDNAKNTVYLQMNSLKPEDTAVYYCNADYSADYYWYYYWGQGTQVTVSS | low polyreactivity |
| QVQLVESGGGLVQAGGSLRLSCAASGFIFRYYAMGWYRQAPGKERELVAAISWRGGSTYYADSVKGRFTISRDNAKNTVYLQMNSLKPEDTAVYYCAAERYVDYGYWGQGTQVTVSS | high polyreactivity |
| QVQLVESGGGLVQAGGSLRLSCAASGRIFYFYTMGWYRQAPGKEREFVAAISDSGDGTYYADSVKGRFTISRDNAKNTVYLQMNSLKPEDTAVYYCAADGTLFSEYYWFFGYHDYWGQGTQVTVSS | high polyreactivity |
| QVQLVESGGGLVQAGGSLRLSCADSGFILTYYAMGWYRQAPGKERELVAAISWSGGSTYYADSVKGRFTISRDNAKNTVYLQMNSLKPEDTAVYYCAAEKRYSSYDYWGQGTQVTVSS | high polyreactivity |
| QVQLVESGGGLVQAGGSLRLSCAASGFTFARYAMGWYRQAPGKERELVAAIIWSGGRTYYADSVKGRFTISRDTAKNTVYLQMNSLKPEDTAVYYCNAWGLFYYSSGYDYWGQGTQVTVSS | high polyreactivity |
| QVQLVESGGGLVQAGGSLRLSCAASGFTFSWYAMGWYRQAPGKERELVAAISLSGDRTYYADSVKGRFTISRDNAKNSVYLQMNSLKPDDTAVYYCVFAFEYFYWGQGTQVTVSS | low polyreactivity |
| QVHLVESGGGLVQAGGSLRLSCAASGFTFLTNAMGWYRQAPGKERELVAAISQSGGRTYYADSVKGRFTISRDNAKNTVYLQMNSLKPEDTAVYYCAAGVRSTGRMDYWGQGTQVTVSS | high polyreactivity |
| QVQLVESCGGLVQAGASLRLSCAASGSTFYDNVMGWYRQAPWKERELVAAITWRGGSTYADSVKGRFTISRDNAKNTVYLQMNSLKPEDTAVYYCNADDDYQQYLGDYWGQGTQVTVSS | low polyreactivity |
| QVQLVESGGGLVQAGGSLRLSCAATGRIFQRNAMGWSRQEPGKEREFVAAISSRGGTTYYADSVKGRFTISRDNAKNTVYLQMNSLKQEDTAVYYCAAGYVHLYYFHEYYWGQGTQVTVSS | high polyreactivity |
| QVQLVESGGGLVQAGGSLRLSCAASGSIYYPYAMGRYRQAPGKERELVAAITTGGSTYYADSVKGRFTISRDNAKNTVYLQMNSLKPEDTAVYYGNKGSFPYTSKAYSYSLGGDDYWGQGTQVTVSS | low polyreactivity |
| QVQLVESGGGLVQERVSLRLSCAASGFIFLFNAMGWNRQAPGKERELVAAISDDGSTYYADSLKGRFTISRDNAKNTVYLQMTSLKTEDTAVYYCAAEYYYDRYTLDYWGQGTQVTVSS | high polyreactivity |
| QVQLVESGGGLVQAGGSLRLSCAASGRIFPGNALGWYIKAPGKEREFVASINWSVGSTFYADSVKGRFTISRDNAKHTVYLQMNSLKPEDTAVYYCAARTFGYYRSRSFNYWGQGTQVTVSS | high polyreactivity |
| QVQLVESGGGLVQAGGSLRLSSAASGSTFRGNAMGWYRQAPGKERELVAAITGRGGRTYYADSVKGRFTISRDNAKNTVYLQMNSLKPEDTAVYYCAAYSRYKPYGITAYDYWGLGTQVTVSS | high polyreactivity |
| QVQLVESGGGLVQAGGSLRLSCAASGRTLRGNAMGWYRQAPGKEREFVAAITRRGGSTYYADSVKGRFTISRDNAKNTVYLQMNSLKPEDTAVYYCAAEGYDWIYLYYGLGYWGQGTQVTVSS | low polyreactivity |
| QVQLVESGGGLVQAGGSLRLSCAASGFTFRGNVMGWYRQAPGKERELVAGISSTGSGRTYYADSVKGRFTISRDNAKNTVYLQMNSLKPEDTAVYYCAASRTLRKHRYEYWGQGTQVTVSS | high polyreactivity |
| QVQLVESGGGIVQAGGSLRLSCAASGSTLYLYVMGWYRQAPGKERELVAVISSSSGRTYYADSVKGRFTISRDNAKNTVYLQMNSLKPEDTAVYYCAADNYVGYHWYNYWGQGTQVTVSS | high polyreactivity |
| QVQLVESGGGLVQAGGSLRLSCAASGFTFGSNAMGWYRQAPGKERELVAAINYSGVRTYYADSVKGRFTISRDNAKNTVYLQMNSLKPEDTAVYYCAKKRSKRISFDYWGQGTQVTVSS | high polyreactivity |
| QVQLVESGGGLVQAGGSLRLSCAASGSTFVVYAMGWYRQAPGKERELVAAISSSGGSTYYADSVKGRFTISRDNAKNTVYLQMNSLKPEDTAVYYCAAGSRFVSSRLYYWGQGTQVTVSS | high polyreactivity |
| QVQLVESGGGLVQAGGSLRLSCAASGRTLGDYGMGWYRQAPGKETQLVAVITSGGSPYYADSVKGRFTISRDNAKNTVYLQMNSLKPEDNAVYFCNARHPYYTVQTGGYDYWGQGTQVTVSS | low polyreactivity |
| QVQLVESGGGLVQAGGSLRLSCAASGSIFSSYAKGWYLQAPGKERELVAAISQSGGDTYYADSVKGRFTISRDNAKNTVYLEMNSLKPEDSAVYYCAASVWYYPMDYWGQGSQVTVSS | low polyreactivity |
| QVQLVESGGGLVQAGGSLRLSCAASGRTFVWNVMGWYRQAPGKEREFVAAISGGSTYYADSVKGRFTISRDNAKNTVYLQMTSLKPEDTAVYYCAADSKLHPRYEYWGQGTQVTVSS | low polyreactivity |
| QVQLVESGGGLVQAGGSLRLSCAASGGTFFVYMGRYRQAPGKERELVAAITGGGGTYYADSVKGRFTISRDNAKNTVYLQMNSLKPEDTAVYYCATRGATSTVPEGDSWGQGTHVTVSS | low polyreactivity |

| Sequence | polyreactivity (PSR sort gate) |
| --- | --- |
| QVQLVESGGGLVQAGGSLRLSCAASGFTFFFYAMGWYRQAPGKEREFVAATSWIGGGTYYADSVKGRFTISRDNAKNTVYLLMNSLKPEDTAVYYCATDLASYAVGSKYGYWGQGTQVTVSS | low polyreactivity |
| QVQLVESGGGLVQAGGSLRFSCAASGSIFFNNAMGWYRQAPGKERELVAAITTGGSTYYADSVKGRFTISRDNAKNTVYLQMNSLKPEDTAVYYCAAVVVYPYRLGYDYWGQGTQVTVSS | low polyreactivity |
| QVQLVESGAGLVQAGGSLRLSCAASGFIFRYYAMGWYRQAPGKERELVARITPRGGRTYYADSVKGRFTISRDNAKNTVYLQMNSLKPEDTAVYYFAAVYPVLHEFGYWGQGTQVTVSS | high polyreactivity |
| QVQLVESGGGLVQAGGSLRLSCAASGSIFWYAMGWYRQAPGKETELVAAISRGGSTYYADSVKGRFTISRDNAKNTVFLEMYRLKPEDTAVYYCATAYRYPRNAYFQRMDSWGQGTQVTVSS | high polyreactivity |
| QVQLVESGGGLVQAGGSLRLICAASGSTFSSNAMGWYRQAPGKERELVAAISRSGVTTYYADSVKGRFTISRDNAKNTVYLQKHSLKPEDTAVYYCAAQPYSRRYGRYRGFQYKYEYWGQGTQVTVSS | low polyreactivity |
| QVQLVESGGGLVQGGGSLRLRCAASGFNFDWYTMGWYRQAPGKERELVAAITIGGSTDYADSVKGRFTISRDNAKNTVYLQMNSLKREDTAVYYCNALWYLSGTWYDYWGQGTQVTVSS | low polyreactivity |
| QVHLVESGGVLVQAGGSLSLSCAASGRTFIRNAMGWYRQAPGKERELVAAINSGGITNYADSVKGRFTISRDNAKNTVYLQMNSLKPEDTAVYYCNARQVLYGLYLRAYPYEYWGQGTQVTVSS | low polyreactivity |
| QVQLVESGGGLVQAGGSLRLSCAASGFIFVKNAMGWYRQAPGKESELVAVISTRGGRTYYADSVKGRFTISRDNAKNTVYLQMNSLKPEDTAVYYCAAGDQYKTRRNGYGYWGQGTQVTVSS | high polyreactivity |
| QVQLVESGGCLVQAGGSIRLSFAASGSISIRNAMGWYRQAPGTERELVAAISRGGSTYYADSVKGRFTISRDNAKNTVYLQMNSLNPEDTAVYYFATDGGLYYRGREYAFKYFYWGQGTQLTVSS | high polyreactivity |
| QVQLVESGGGLVQAGGSLRLSCAASGRTFYYNVMGWYRQAPGKERELVAAISTGVSTNYADSVKGRFTISRDNAKNTVYLQMNSLKPEDTAVYYCNARSYRWYRPVYRYDYWGQGTQVTVSS | high polyreactivity |
| QVQLVESGGGLVQAGGSLRLSCAASGRIIKYYTMGWYRQAPGKERELVAAISRGGTTNYADSVKGRFTISRDNAKNTVYLQMNSLKPEDTAVYYCNAVGFYAANTFDYWGQGTQVTVSS | high polyreactivity |
| QVQLVESGGGLVQSGGSLRLICAASGSTFGRYPMGWYRQAPGKERELVARISSGGSTTYADSVKGRFTISRDNAKNTVYFLRNSLKTEETAVYYSAADTPYWRYDYWGQGTQVTVSS | high polyreactivity |
| QVQLVESGGGLVQAGGSLRLSCAASGSIFHYNAMGWYRQAPGKERELVARISVNGGRTYYADSVKGRFTISRDNAKNTVYLQMNSLKPEDTAVYYCAVEGVWRSFFYGYDSWGQGTQVTVSS | low polyreactivity |
| QVQLVESGGGLVQAGGSLRLSCAASGSTIWFYVMGWYRQAPGKERELVATIRWSTSSTYADSVKGRFTISRDNAMNTVYLQMNILKPEDTAVYYCNAQYSQVNGYDYWGQGTQVTVSS | low polyreactivity |
| QVQLVESGGGLVQAGGSLRLSCAASGRIFTDYAMGWYRQAPGKEREFVAAINKSGGSTYYADSVKGRFTISRDNAKNTVYLQMNSLKPEDTAVYYCAKPHVIYPSYDYWGQGTQVTVSS | low polyreactivity |
| QVQLVESGGGLVQAGGSLRLSCAASGRIFRYYAMGWYRQAPGKERELVATIRSGGSTNYADSVKGRFTISRDNAKNTVYLQMNSLKPEDTEVYYCAATGGILSTYDYWGLGTQVTVSS | high polyreactivity |
| QVQLVESGGGLVQAGGSLRLSCAPSGSIFRKNAMGWYRQAPGKERELVAAITGTGRTTYADSVKGRFTISRDNAKNTVYLQMNSLKPEDTAVYYCAAESVSSGDNASRYDYWGQGTQVTVSS | low polyreactivity |
| QVQLVESGGGLVQAGGSLRLSCAASGSTFHKNAMGWYRQAPGKERELVAGITKRGGSTYYADSVKGRFTISRDNAKNTVYLQMNSLKPEDTAVYYCNADFPVGRTEYDYWGQGTQVTVSS | low polyreactivity |
| QVQLVESGGGLVQAGGSLRLSCAASGRTSWVYAMGWYRQAPGKERELVASIRKRTVVYADSVKGRFTISRDNAKNTVYLQMNSLKPEDTAVYYCNADTTFYGYRTYRPENYWGQGTQVTVSS | high polyreactivity |
| QVQLVESGGGLVQAGGSLRLSCAASGRIFGHYVMGWYRQAPGTERELVAAISYSGGSTYYAHSVKGRFTISRDNAKNTVYLQMNSLKPEDTAVYYCAAYVYRYHRVAYEYWGQGTQVTVSS | high polyreactivity |
| QVQLVESGGGLVQAGGSLRISCAASGRIFSYNAMGWYRQAPGKERELVAAITTGGSTYYADSVKGRFTISRDNAKNTVYLQMNSLKPEDTAVYYSIKLGYYYDRRYDYWGQGTQVNVSS | high polyreactivity |
